{"source": "patent US7276370", "about": "(DONALD DANFORTH PLANT SCIENCE CENTER, dated 2007)", "proteins": {"B1": {"name": "Rf2a transcription factor (other)", "chain": "MNREKSPIPGDGGDGLPPQATRRAGPPAAAAAAEYDISRMPDFPTRNPGHRRAHSEILSLPEDLDLCAAGGGDGPSLSDENDEELFSMFLDVEKLNSTCGASSEAEAESSSAAAHGARPKHQHSLSMDESMSIKAEELVGASPGTEGMSSAEAKKAVSAVKLAELALVDPKRAKRIWANRQSAARSKERKMRYIAELERKVQTLQTEATTLSAQLALLQRDTSGLTTENSELKLRLQTMEQQVHLQDALNDTLKSEVQRLKVATGQMANGGGMMMNFGGMPHQFGGNQQMFQNNQAMQSMLAAHQLQQLQLHPQAQQQQVLHPQHQQQQPLHPLQAQQLQQAARDLKMKSPMGGQSQWGDGKSGSSGN", "notes": "The 5' primer encodes an extra Met-Glu-Lys before MNREKS; Crude E. coli protein extract was used in the EMSA; also called rice transcription factor Rf2a"}}, "molecular_target": "the molecule itself", "experiment": "EMSA, E. coli protein extract with 32P-labeled BoxIIml DNA probe; homodimer inferred from the shifted band", "method": "FIG. 5: Electrophoretic mobility shift assay (EMSA) of Rf2a and the 3Δ mutant of Rf2a. Oligonucleotides containing the BoxIIml sequences (Yin et al., 1997a) were used as ^32P-labeled probe or an unlabeled competitor in an EMSA with 500 ng of *E. coli* protein containing 3Δ protein or Rf2a. Unbound probe is located near the bottom of the gel. The band with the greatest mobility in lanes 1, 2, 4, and 5 indicated by x is presumed to result from binding with an uncharacterized protein that co-purifies with the target protein. Lane 1, protein prepared from *E. coli* without induction. Lane 2, reaction with extracts of *E. coli* that produce Rf2a. Lane 3, reaction with equimolar amounts of Rf2a and 3Δ plus 80× fold molar excess of unlabeled competitor probe relative to the labeled probe. Lane 4, reaction with equimolar amounts of Rf2a and 3Δ. Lane 5, reaction with 3Δ.\nElectrophoretic mobility shift assays (EMSAs). EMSAs were carried out essentially as described by Yin and Beachy (7). 500 ng of *E. coli* protein extracts were incubated with 32_P labeled DNA probes comprising Box IIml that was constructed using annealed oligonucleotides (10). For competition EMSA, unlabeled oligonucleotides were added to the binding reactions at 80 fold molar excess relative to the labeled probe (see FIG. 5).", "data": [{"protein": "B1", "values": [{"measurement": "binding result", "value": "binds"}]}]}
